In patent US20230159655A1:

Legend:
[1] = target: human NT5E-Biotin (NT5E, GenbankID: NP_002517.1, position: 1-552) (human) (UniProt P21589); experiment: ELISA on SA-captured NT5E-Biotin; antibody 0.333 ug/mL diluted 1:27; replicate 1
[2] = target: human NT5E-Biotin (NT5E, GenbankID: NP_002517.1, position: 1-552) (human) (UniProt P21589); experiment: ELISA on SA-captured NT5E-Biotin; antibody 0.333 ug/mL diluted 1:81; replicate 2
[3] = target: human NT5E-Biotin (NT5E, GenbankID: NP_002517.1, position: 1-552) (human) (UniProt P21589); experiment: ELISA on SA-captured NT5E-Biotin; antibody 0.333 ug/mL; replicate 1
[4] = target: CD73 endogenously expressed on the cell surface (MDA-MB-231 cells; U87-MG cells) (UniProt P21589); experiment: flow cytometry on MDA-MB-231 cells; antibody 3.70 nM
Sequence of CD73 endogenously expressed on the cell surface (MDA-MB-231 cells; U87-MG cells) (P21589 27-549 limits assumed): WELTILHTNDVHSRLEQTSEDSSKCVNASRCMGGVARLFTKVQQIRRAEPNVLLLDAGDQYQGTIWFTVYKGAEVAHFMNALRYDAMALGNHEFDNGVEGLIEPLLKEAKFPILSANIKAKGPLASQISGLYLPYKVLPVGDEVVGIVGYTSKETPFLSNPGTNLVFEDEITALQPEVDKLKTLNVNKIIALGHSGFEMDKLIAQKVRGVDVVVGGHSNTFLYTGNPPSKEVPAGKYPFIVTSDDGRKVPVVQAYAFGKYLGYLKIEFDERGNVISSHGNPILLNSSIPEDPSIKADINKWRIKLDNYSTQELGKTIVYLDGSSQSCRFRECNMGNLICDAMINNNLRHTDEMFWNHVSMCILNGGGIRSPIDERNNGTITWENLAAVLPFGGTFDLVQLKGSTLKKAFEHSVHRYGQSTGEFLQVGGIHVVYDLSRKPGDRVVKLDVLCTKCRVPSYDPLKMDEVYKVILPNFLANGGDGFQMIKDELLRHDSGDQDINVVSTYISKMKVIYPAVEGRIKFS

[5] = target: human NT5E-Biotin (NT5E, GenbankID: NP_002517.1, position: 1-552) (human) (UniProt P21589); experiment: ELISA on SA-captured NT5E-Biotin; antibody 0.333 ug/mL diluted 1:243; replicate 1
[6] = target: human NT5E-Biotin (NT5E, GenbankID: NP_002517.1, position: 1-552) (human) (UniProt P21589); experiment: ELISA on SA-captured NT5E-Biotin; antibody 0.333 ug/mL diluted 1:9; replicate 2
[7] = target: human NT5E-Biotin (NT5E, GenbankID: NP_002517.1, position: 1-552) (human) (UniProt P21589); experiment: ELISA on SA-captured NT5E-Biotin; antibody 0.333 ug/mL; replicate 2
[8] = target: human NT5E-Biotin (NT5E, GenbankID: NP_002517.1, position: 1-552) (human) (UniProt P21589); experiment: ELISA on SA-captured NT5E-Biotin; antibody 0.333 ug/mL diluted 1:3; replicate 2
[9] = target: CD73 endogenously expressed on the cell surface (MDA-MB-231 cells; U87-MG cells) (UniProt P21589); experiment: flow cytometry on MDA-MB-231 cells; antibody 100.00 nM
[10] = target: human NT5E-Biotin (NT5E, GenbankID: NP_002517.1, position: 1-552) (human) (UniProt P21589); experiment: ELISA on SA-captured NT5E-Biotin; antibody 0.333 ug/mL diluted 1:81; replicate 1
[11] = target: CD73 endogenously expressed on the cell surface (MDA-MB-231 cells; U87-MG cells) (UniProt P21589); experiment: flow cytometry on MDA-MB-231 cells; antibody 0.41 nM
[12] = target: human NT5E-Biotin (NT5E, GenbankID: NP_002517.1, position: 1-552) (human) (UniProt P21589); experiment: ELISA on SA-captured NT5E-Biotin; antibody 0.333 ug/mL diluted 1:27; replicate 2
[13] = target: human NT5E-Biotin (NT5E, GenbankID: NP_002517.1, position: 1-552) (human) (UniProt P21589); experiment: ELISA on SA-captured NT5E-Biotin; antibody 0.333 ug/mL diluted 1:9; replicate 1
[14] = target: CD73 endogenously expressed on the cell surface (MDA-MB-231 cells; U87-MG cells) (UniProt P21589); experiment: flow cytometry on MDA-MB-231 cells; antibody 11.11 nM
[15] = target: human NT5E-Biotin (NT5E, GenbankID: NP_002517.1, position: 1-552) (human) (UniProt P21589); experiment: ELISA on SA-captured NT5E-Biotin; antibody 0.333 ug/mL diluted 1:729; replicate 1
[16] = target: CD73 endogenously expressed on the cell surface (MDA-MB-231 cells; U87-MG cells) (UniProt P21589); experiment: flow cytometry on MDA-MB-231 cells; antibody 0.14 nM
[17] = target: human NT5E-Biotin (NT5E, GenbankID: NP_002517.1, position: 1-552) (human) (UniProt P21589); experiment: ELISA on SA-captured NT5E-Biotin; antibody 0.333 ug/mL diluted 1:3; replicate 1
[18] = target: CD73 endogenously expressed on the cell surface (MDA-MB-231 cells; U87-MG cells) (UniProt P21589); experiment: flow cytometry on MDA-MB-231 cells; antibody […]
[19] = target: CD73 endogenously expressed on the cell surface (MDA-MB-231 cells; U87-MG cells) (UniProt P21589); experiment: flow cytometry on MDA-MB-231 cells; antibody 33.33 nM
[20] = target: human NT5E-Biotin (NT5E, GenbankID: NP_002517.1, position: 1-552) (human) (UniProt P21589); experiment: ELISA on SA-captured NT5E-Biotin; antibody 0 (blank); replicate 1
[21] = target: human NT5E-Biotin (NT5E, GenbankID: NP_002517.1, position: 1-552) (human) (UniProt P21589); experiment: ELISA on SA-captured NT5E-Biotin; antibody 0.333 ug/mL diluted 1:243; replicate 2
[22] = target: human NT5E(1-552)-his (human) (UniProt P21589); experiment: Fortebio BLI, antibody on Protein A sensor, antigen 3.125-200 nM, 37 C, 1:1 fit
Sequence of human NT5E(1-552)-his (human) (P21589 27-552 limits assumed, form in doubt): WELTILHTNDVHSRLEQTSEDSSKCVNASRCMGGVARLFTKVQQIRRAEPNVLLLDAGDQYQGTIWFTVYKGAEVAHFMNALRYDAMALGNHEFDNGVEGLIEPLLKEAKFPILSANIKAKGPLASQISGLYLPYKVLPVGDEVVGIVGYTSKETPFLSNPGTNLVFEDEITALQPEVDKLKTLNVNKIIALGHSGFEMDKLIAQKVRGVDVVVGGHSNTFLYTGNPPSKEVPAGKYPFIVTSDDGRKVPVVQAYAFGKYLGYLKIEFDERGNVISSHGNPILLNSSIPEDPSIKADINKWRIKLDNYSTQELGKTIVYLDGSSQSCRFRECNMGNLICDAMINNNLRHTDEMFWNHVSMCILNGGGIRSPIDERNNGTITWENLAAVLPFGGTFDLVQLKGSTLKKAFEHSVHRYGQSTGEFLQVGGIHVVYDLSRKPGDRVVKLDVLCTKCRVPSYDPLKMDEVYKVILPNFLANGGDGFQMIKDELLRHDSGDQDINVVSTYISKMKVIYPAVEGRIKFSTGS

[23] = target: CD73 endogenously expressed on the cell surface (MDA-MB-231 cells; U87-MG cells) (UniProt P21589); experiment: flow cytometry on MDA-MB-231 cells; antibody 0.05 nM
[24] = target: human NT5E-Biotin (NT5E, GenbankID: NP_002517.1, position: 1-552) (human) (UniProt P21589); experiment: ELISA on SA-captured NT5E-Biotin; antibody 0 (blank); replicate 2
[25] = target: human NT5E-Biotin (NT5E, GenbankID: NP_002517.1, position: 1-552) (human) (UniProt P21589); experiment: ELISA on SA-captured NT5E-Biotin; antibody 0.333 ug/mL diluted 1:729; replicate 2

Sequence of human NT5E-Biotin (NT5E, GenbankID: NP_002517.1, position: 1-552) (human) (P21589 27-552 limits assumed, form in doubt): as above

“positive control antibody MEDI9447 (oleclumab)” was tested. Which OD 450 nm [1] did it give?
The OD 450 nm was 1.77 OD450.

What about the OD 450 nm [2] of the same substance?
Its OD 450 nm is 1.03 OD450.

What about the OD 450 nm [3] of the same substance?
Its OD 450 nm is 2.55 OD450.

And the fluorescence intensity (FACS) [4]?
Its fluorescence intensity (FACS) is 454.

What about the OD 450 nm [5] of the same substance?
The OD 450 nm was 0.536 OD450.

And the OD 450 nm [6]?
The OD 450 nm was 2.28 OD450.

And the OD 450 nm [7]?
The OD 450 nm was 2.53 OD450.

What about the OD 450 nm [8] of the same substance?
Its OD 450 nm is 2.6 OD450.

And the fluorescence intensity (FACS) [9]?
Its fluorescence intensity (FACS) is 581.

What about the OD 450 nm [10] of the same substance?
Its OD 450 nm is 1.06 OD450.

And the fluorescence intensity (FACS) [11]?
Its fluorescence intensity (FACS) is 91.

What about the OD 450 nm [12] of the same substance?
The OD 450 nm was 1.74 OD450.

And the OD 450 nm [13]?
The OD 450 nm was 2.27 OD450.

And the fluorescence intensity (FACS) [14]?
Its fluorescence intensity (FACS) is 519.

What about the OD 450 nm [15] of the same substance?
The OD 450 nm was 0.272 OD450.

What about the fluorescence intensity (FACS) [16] of the same substance?
Its fluorescence intensity (FACS) is 43.2.

And the OD 450 nm [17]?
The OD 450 nm was 2.57 OD450.

What about the fluorescence intensity (FACS) [18] of the same substance?
The fluorescence intensity (FACS) was 267.

What about the fluorescence intensity (FACS) [19] of the same substance?
Its fluorescence intensity (FACS) is 546.

What about the OD 450 nm [20] of the same substance?
The OD 450 nm was 0.121 OD450.

And the OD 450 nm [21]?
Its OD 450 nm is 0.528 OD450.

What about the S E (kdis) [22] of the same substance?
Its S E (kdis) is 5.02e-06 s⁻¹.

What about the fluorescence intensity (FACS) [23] of the same substance?
Its fluorescence intensity (FACS) is 28.4.

What about the OD 450 nm [24] of the same substance?
Its OD 450 nm is 0.116 OD450.

And the OD 450 nm [25]?
Its OD 450 nm is 0.275 OD450.
